# Patent publication US6800467B1, “Polypeptides having aminopeptidase activity and nucleic acids encoding same” (Novozymes Biotech, Inc., priority 1997, dated 2004)
# Key:
# [1] = Kinetic parameters of aminopeptidase II for p-nitroanilides at pH 7.0 and 25° C.; format: biochemical; settings: pH 7.0, 25° C.
# Experimental: The purified aminopeptidase II described in Example 11 was used in the following characterization.
# Kinetic parameters of the aminopeptidase II were determined for several p-nitroanilides (pNA) including Leu-pNA, Gly-pNA, Ala-pNA, and Pro-pNA (Sigma Chemical Co., St. Louis, Mo., or Bachem, Torrance, Calif.). Stock solutions of 100 mg of each p-nitroanilide per ml of dimethylsulfoxide were diluted with 50 mM potassium phosphate pH 7.0 buffer to concentrations ranging from 0.0064 to 9.56 mM. […] The reaction of the aminopeptidase II with the p-nitroanilide was initiated when a 100 μl aliquot of the enzyme solution in 50 mM potassium phosphate pH 7.0 was added to 100 μl of a substrate solution in a microtiter plate well and monitored at 405 nm and 25° C. using a THERMOmax Microplate Reader (Molecular Devices Corp., Sunnyvale, Calif.).
# [2] = Kinetic parameters (Lineweaver-Burke plot) at pH 7.5; format: biochemical; settings: for kcat: average molecular weight of 97 kDa used
# Experimental: The kinetic parameters for various aminopeptidase II substrates was determined using the following protocol. Purified aminopeptidase II with an A280 of 0.581 was used. Each substrate was dissolved in DMSO to a concentration of 100 mg/ml and then diluted 50 fold in 50 mM sodium phosphate pH7.5 buffer to 2 mg/ml. The substrates included Leu-pNA, Glu-pNA (Bachem, Torrance, Calif.), and Ala-pNA. In a 96 well microtiter plate, 10 μl of purified aminopeptidase II was incubated with each substrate as follows except 50 µl of purified aminopeptidase II was incubated with Glu-pNA, and the absorbance at 405 nm was measured for 4 minutes:
# 1. 200 μl of 2 mg/ml substrate+0 μl of 50 mM sodium phosphate buffer pH 7.5
# 2. 100 μl of 2 mg/ml substrate+100 μl of 50 mM sodium phosphate buffer pH 7.5
# 3. 50 μl of 2 mg/ml substrate+150 μl of 50 mM sodium phosphate buffer pH 7.5
# 4. 25 μl of 2 mg/ml substrate+175 μl of 50 mM sodium phosphate buffer pH 7.5
# [3] = substrate Ala-pNA, enzyme of Example 11
# [4] = substrate Gly-pNA, enzyme of Example 11
# [5] = substrate Pro-pNA, enzyme of Example 11
molecule,measurement,setting,value
"aminopeptidase II: Recombinant Aspergillus oryzae 1568 (ATCC 20386) aminopeptidase II, 496 amino acids (SEQ ID NO:2), produced in Aspergillus oryzae or Fusarium (protein) MRSLLWASLLSGVLAGRALVSPDEFPEDIQLEDLLEGSQQLEDFAYAYPERNRVFGGKAHDDTVNYLYEELKKTGYYDVYKQPQVHLWSNADQTLKVGDEEIEAKTMTYSPSVEVTADVAVVKNLGCSEADYPSDVEGKVALIKRGECPFGDKSVLAAKAKAAASIVYNNVAGSMAGTLGAAQSDKGPYSAIVGISLEDGQKLIKLAEAGSVSVDLWVDSKQENRTTYNVVAQTKGGDPNNVVALGGHTDSVEAGPGINDDGSGIISNLVIAKALTQYSVKNAVRFLFWTAEEFGLLGSNYYVSHLNATELNKIRLYLNFDMIASPNYALMIYDGDGSAFNQSGPAGSAQIEKLFEDYYDSIDLPHIPTQFDGRSDYEAFILNGIPSGGLFTGAEGIMSEENASRWGGQAGVAYDANYHAAGDNMTNLNHEAFLINSKATAFAVATYANDLSSIPKRNTTSSLHRRARTMRPFGKRAPKTHAHVSGSGCWHSQVEA",Km,[1]; [3],11000 µM
same,Vmax,[1]; [3],1200 relative units
same,Km,[1]; [4],300 µM
same,Vmax,[1]; [4],1670 relative units
same,Vmax,"[1]; substrate Leu-pNA, enzyme of Example 11",6400 relative units
same,Km,"[1]; substrate Leu-pNA, enzyme of Example 11 (produced in Aspergillus)",7000 µM
same,Km,[1]; [5],2000 µM
same,Vmax,[1]; [5],120 relative units
same,Km,"[2]; substrate Ala-pNA, enzyme of Example 15",1490 µM
same,kcat,[2]; substrate Glu-pNA,0.137 s⁻¹
same,Km,"[2]; substrate Glu-pNA, enzyme of Example 15",1170 µM
same,kcat,[2]; substrate Leu-pNA,3.848 s⁻¹
same,Km,"[2]; substrate Leu-pNA, enzyme of Example 15 (produced by Fusarium)",5780 µM
